Data reported in publication PMC10027511 (2023).

Assays:
[1] = molecular target: T1, Sos site 2 peptide site 2 peptide (Drosophila melanogaster, UniProt P26675); assay: 19F NMR lineshape analysis, 35 °C
T1 chain: GELSPPPIPPRL

[2] = molecular target: T1, Sos site 2 peptide site 2 peptide; assay: 19F NMR lineshape analysis, 45 °C
[3] = molecular target: T1, Sos site 2 peptide site 2 peptide; assay: 19F NMR lineshape analysis, 15 °C
[4] = molecular target: T1, Sos site 2 peptide site 2 peptide; assay: 19F NMR lineshape analysis, 4.2 °C
[5] = molecular target: T1, Sos site 2 peptide site 2 peptide; assay: 19F NMR lineshape analysis, 25 °C

Kd [1]: 59 µM
Kd [2]: 110 µM
Kd [3]: 17 µM
Kd [4]: 9 µM
Kd [5]: 33 µM
B1: Drk N-terminal SH3 domain N-terminal SH3 (protein)
chain: MEAIAKHDFSATADDELSFRKGQILKILNMEDDSNWYRAELDGKEGLIPSNYIEMKNH
